# Data published in the DeepSol protein solubility set.
# Assay: soluble on expression in E. coli; label from the status in PepcDB or PDB records
row,Sequence,soluble on expression in E. coli
1,MTTYLIIGANRVGQLVARQLATESATVRLLHDGKETLPSDLATQVTELTGDLTQEATYTAALQDQPIIFSALTGMDVDLAFEALFDAQYHQRLTFQRFVMLSTAGVDQEVTGDLAYPGITDVAEYLKQQRYAAKLVDEAEFPYTILRPVTLADSPRRDPQIIKEGAAVPAGTVSRETVAQVAVSLLQAGGADYQSLAICLEHHHHHH,not soluble
2,MGSDKIHHHHHHMDGVKCQFVNTNGITLHVAAAGREDGPLIVLLHGFPEFWYGWKNQIKPLVDAGYRVIAPDQRGYNLSDKPEGIDSYRIDTLRDDIIGLITQFTDEKAIVIGHDWGGAVAWHLASTRPEYLEKLIAINIPHPHVMKTVTPLYPPQWLKSSYIAYFQLPDIPEASLRENDYDTLDKAIGLSDRPALFTSEDVSRYKEAWKQPGALTAMLNWYRALRKGSLAEKPSYETVPYRMIWGMEDRFLSRKLAKETERHCPNGHLIFVDEASHWINHEKPAIVNQLILEYLKNQ,not soluble
3,SGGGGKAWPTHVVCSDSGLEVLYQSCDPLQDFGFSVEKCSKQLKSNINIRFGIILREDIKELFLDLALMSQGSSVLNFSYPICEAALPKFSFCGRRKGEQIYYAGPVNNPEFTIPQGEYQVLLELYTEKRSTVACANATIMCS,soluble
4,GSIGLEAEIETTTDETDDGTNTVSHILNVLKDATPIEDVFSFNYPEGIEGPDIKYKKEHVKYTYGPTFLLQFKDKLNVKADAEWVQSTASKIVIPPGMGR,soluble
5,MLYVVGIGPGNEEYFTKEAENALNSVDLIVCYTGYKKYIERFDTEIYVSGMTKEVERVEYALKEAENKNVALVSNGDATIYGLASLAYELNEKNLHNVTINVVSGL,not soluble
6,MAISKKKRFFFDLAQDEDDAETVQEVKKVEQQLKLEPVVQPQHDLTNQTKANQSSQDRKFFSKDMPQFDFGPLLKFGDEFVKSFNQFPKQEPQTSTQPVNVQPQSEPTNFNNQVPTQPVHQTAEVHLNEFQQPTTTNFNQQPVATSNIQVEATQPIVEPVPQPEPQPAVEQPQVKQTTRPSNKLQEEENLPPPKAKVPGIIPLERQERLTTGVHFYTSTRVWNKVKRYAKAVNIPISRILTMILDQVIEE,soluble
7,MIELKHVTFGYNKKQMVLQDINITIPDGENVGILGESGCGKSTLASLVLGLFKPVKGEIYLSDNAVLPIFQHPLTSFNPDWTIETSLKEALYYYRGLTDNTAQDQLLLQHLSTFELNAQLLTKLPSEVSGGQLQRFNVMRSLLAQPRVLICDEITSNLDVIAEQNVINILKAQTITNLNHFIVISHDLSVLQRLVNRIIVLKDGMIVDDFAIEELFNVDRHPYTKELVQAFSY,not soluble
8,MGSDKIHHHHHHMTVLIIGMGNIGKKLVELGNFEKIYAYDRISKDIPGVVRLDEFQVPSDVSTVVECASPEAVKEYSLQILKNPVNYIIISTSAFADEVFRERFFSELKNSPARVFFPSGAIGGLDVLSSIKDFVKNVRIETIKPPKSLGLDLKGKTVVFEGSVEEASKLFPRNINVASTIGLIVGFEKVKVTIVADPAMDHNIHIVRISSAIGNYEFKIENIPSPENPKTSMLTVYSILRTLRNLESKIIFG,soluble
9,MSASAETVAPEGYRKLLDVQIFKDSPVVGWSGSGMGELETIGDTLPVDTTVTYNGLPTLRLNVQTTVQSGWWISLLTLRGWNTHDLSQYVENGYLEFDIKGKEGGEDFVIGFRDKVYERVYGLEIDVTTVISNYVTVTTDWQHVKIPLRDLMKINNGFDPSSVTCLVFSKRYADPFTVWFSDIKITSEDNEKSAPAIKLEHHHHHH,soluble
10,MGSDKIHHHHHHMTDVNASSESRLAALEARVTELEDLNAIRRLQWAYGYYIDYNRPEEVAGLFAKDGAVVFLSGEYVGYEGVMRLYGTWFQNLFTGGRRGPVHGLLLDHFQLQDVITIAPDGQTAKGRFRGILAGGWHDDIVKDKPEGMPQQFWESGIYENDYVKEDGVWKIKRLDYMMQWQADYETGWSKTIAHLQPAAVCFPENPIGPDRLLPETEVRQTWPHRAEVPMSFAHPVLAKAFAVGEFTKLQKKWP,not soluble
11,MSAEAVIENRDYTLMIDKSSSMATADDPNGPTRWEIAQASTIALAKKCEEIDSDGITVYLFSGRFRRYDNVTAEKVAYIYANNEPMGRTDLAGALKDGLDNFFQRRQAGQTKPNGETFLIITDGEPTDRKAVIRLILEASQKIDRDEELAISLIQVGRDKKATAFFQALDDQLQAAGAKFDIVDTVTMEDMQGMSLSDVLLKAITDLEHHHHHH,not soluble
12,MSGISIIENAVLKPTKREVAEQWLGYFEHIGSYRFVDPDGQVGIESLIGFDLDRRLVQMPVTYRSAEFDAEHTLTTMDHSVLGTRYVSNAMGDPVAVREYIRVILEADNGAQRSDGKVSVLDVRGSGNREEKLTLGEVRILEATRQRAVGYVRIDGTLRGFVLRVPHLLVPENSPRLGHNISPMRLNGSVVMSPKTVLIAAELSWHDI,not soluble
13,MTQHFPTRQLRFFLTAPTPCPYLPGREERKVFAHLPLSDGPIVNDSLTQVGFRRSQNIAYRPACETCRACQSARAPATEYILSRSERKILGRNDDLERHLVEAEATLEQFELLRRYLLTRHADGGMAEMTWPDYVAMVEDTAVRTHLIEYRRKSLDRGPGDLVACVLVDVLADGLSLVYSFYEPDQPRRSLGSFIILDHIVQAQQNALPYVYLGYWVPGSEKMAYKARFSPLEILKPGGWSLMSARERGARPPRGPGALKDACDLPLSDAQPADIEDLDLEHHHHHH,not soluble
14,MGSDKIHHHHHHMMRVEHLAYQFSRNGQPFFKDVSFQLKSPGVNFLIGQNGAGKTTLADIITGLRPAQGELDLPKAAIYLNQQLPLLSSIRVRDVAQLVLGIEHGRLRLTTEQLQQLIDTQAYQFLAPLWDQHYGQLSGGQRKLVQLLLFLQVDRELIVLDEPTAAVDRENVQLLFQVMQAHPERTYLMITHDVRDLHAFTDYQVLWLNDRQVTTLSKRTFEAASAQADFVALFKTQ,not soluble
15,SHVETGPNGEQIRKHAGQKRTYKAISESYAFLPREAVTRFLMSCSECQKRMHLNPDGTDHKDNGKPPTLVTSMIDYNMPITMAYMKHMKLQLLNSQQDEDESSIESDEFDMSDSTRMSAVNSDLSSNLEERMQSPQNLHGQQDDDSAAESFNGNETLGHSSIASGGTHSREMGDSNSDGKTGLEQDEQPLNLSDSPLSAQLTSEYRIDDHNSNGKNKYKNLLISDLKMEREARENGSKSPAHSYSSYDSGKNESVDRGAEDLSLNRGDEDEDDHEDHDDSEKVNETDGVEAERLKAFNDESAPADKQCKPEATQATYSTSAVPGSQDVLYINGNGTYSYHSYRGLGGGLLNLNDASSSGPTDLSMKRQLATSSGSSSSSNSRPQLSPTEINAVRQLVAGYRESAAFLLRSADELENLILQQN,soluble
16,MSIGVVLAKITAEFPDVTVSKIRYLESEGLITPQRTSTGYRRFTQDDVERLRYILVTQRDNYLPLKVIREQLEAMDSGAVTPISRGSDNAPLISPESFRTSVVTRLSDSDVAARAQVSESEVSELAEAGLIRPDSSGFFTADDVQVVSVAVQLKEFGFDVRHLKSLRNLASRHADLISRATTPVARSQSESARQRAEEMSQQLSALVVSLNATMLRSMLRDELNR,not soluble
17,MGSDKIHHHHHHMEIKQLRYFIEVAKREHISETALELNIAQSAISRQITLLEQELNVSLFKKQGRNITLTSEGKLLFNEALRIIEHLDSTIEQFQSHGLTKNKSIYIGYDESDVSHMLLPLIQTFHLQNDTHVIPSLLDHDTIINSVLNGNIDIGFTELTPEIRKHKQLHMLPLFEEHYHLYAPSDDPITMATHPPLIQFEHSHIYCLAPFAETVKKQLRKITKSDVYTISSQPLAQYLLRQKEGYIISSQNIHLPESKSWIDIKLDHTELKRTICAITKEPYTKSDIGILLTLIQQLMTKTSTFH,not soluble
18,GSPEFMALTQSLKLSNGVMMPVLGFGMWKLQDGNEAETATMWAIKSGYRHIDTAAIYKNEESAGRAIASCGVPREELFVTTKLWNSDQGYESTLSAFEKSIKKLGLEYVDLYLIHWPGKDKFIDTWKAFEKLYADKKVRAIGVSNFHEHHIEELLKHCKVAPMVNQIELHPLLNQKALCEYCKSKNIAVTAWSPLGQGHLVEDARLKAIGGKYGKTAAQVMLRWEIQAGVITIPKSGNEARIKENGNIFDFELTAEDIQVIDGMNAGHRYGPDPEVFMNDF,soluble
19,MGSDKIHHHHHHLIKSIFNKLFNLRENNPIERPKSFSATDLGKPLAISPKNITQQESISANVVYVDLSALFYSLLFPARVNDAGGIANNLERRVMAEIEHALASPQVIAEKVLKLPSKVLELDRKLADPQFDIKALLALIERDPLLSVEVLKLCNSPAFKRSDRDITNLQQALVQLGREQLRKFVTTCLVREMLDIKPIYFRRFGAEIWRHSMQVAFLASELSDEDQDTAFLLGLLHDVGKLAIFKMLLDAFVQAEPGEQPNSGLFRQVMTTKSLTLSSLLAKHWQLPNTFETELDRLASVNSRPQAGLAAVVWRANVISEISMLHQAGQLSPEILANLLQQVNLEQTQFDGLHQKLLQF,not soluble
20,MGSDKIHHHHHHMTAISREVPRTPHDLSLYLTRLGLTAPDLGSAMQPVLDVLVSRTAAVGAGYFQLRDSTLTYQARAASGDLPQGPLMEALLAHGLPPELPLVQALEAADGALFFEDTRLDPQAAGFADLGVLALTAAPVHNQSGRLVGALLSHVFAPHPWSAEERQLVSTVTGLLTLLAARLDAEERERAAHESALRALGLMLEARDTETQGHTDRVTALALRLGRALGLSDTELRDLRWGAYLHDIGKIAIPDAILHCPGTLDLAAWARMQEHVNEGTRLAAQLPFLPRAALDVIACHHECWDGSGYPRGLAGEAIPRHARIFAACDVYDALVSARPYKRAWTHAEATAYLEQRSGHQFDPVIVRALLRVLEDEDSAAANA,not soluble
21,MSLDFSIPEEYMMLKESMREFVKRELMPLEKTLLERELSLWTEPGHLIPDEDHKRLMQKTKELGFWGLEVDEEFGGQGLGMLAKTLVVEELSKSLVGFSNHGFTLPPDAPNLYYLHECCGPRQREKYFVPYCNGDVDSAMACTEPGAGSDVSGLKTKAVKKGDKWVINGTKSFISKCDYDNVFFIVIAVTDPSASTKDRFTAFLIDREHPGVRIGKEIPVIGPMPTWDLILEDVEVDDDAILGDVGKAFIPLQNRFGVRRIELASSCTGMAERLIQMMIDQANTRITFGQPLAERGTIQNWIADSTMELEQVRWLLYYAAWKSDQGHKDLRIEGASVKVAATEMLTRVADRAIQIHGGLGVSHELGIEYVARHVRLWRIVEGPSEVHRWLVARQLLKEGHHHHHH,not soluble
22,MQLNMMLENRDYTLVIDHSASMAKPDGNSENSKWQAIQESTFALARKCEEFDSDGITVYLFSKTFQRYDYVNSAKVKQLFAENSPSETTNLVGVLQDAINSYFQRKSLGKTKPAGEVILVITDGAPVDSQAVCEVIIKATHLVESANELRISIIQVGSDSHATKFLKALDDHLQSVGAKFDICDTITLDELEITNLSDVLMKAITDLEHHHHHH,soluble
23,MGSDKIHHHHHHMLSMKNIVGKPQTIKKVNEDLIKNIIKNEGPITKPEISSITELSLATVNKIVEQLALKNEVKVSGLSESTGGRRAQLFEINANLEHIIALYYYRNCCIGVVANLLGEIIYQEEFNIRMDTYENVNQDTFFVIDTLIKKEKGNNIRAIGIGVPGVVKKGVVKNIPTIKSWEGINLENLIKSKYNTKVFIENDTNITTIGIYQKQYKDKYKNMALMYLEDGIGSGIVINGELYLGSTNFAGELSYLNIEFGKYNSNNLNLEDYIMSLRKRYLESKDNKFKKEILSIISNFIRTLVCVLNPQAMIIQCSILTKSDMEFIEKDVSNNVGEENFPKLIKVESLREGSINGVISMCLKETDYQYSLSNKKGGY,not soluble
